Measured values as given in patent publication US6403765B1, “Truncated Apaf-1 and methods of use thereof” (Thomas Jefferson University, priority 1998, dated 2002).

Tests used:
procaspase-3 = molecular target: T1, procaspase-3 (Homo sapiens, UniProt P42574); assay: Processing of procaspase-3 by Apaf-530-bound caspase-9; assay type: biochemical; settings: Apaf-530 with non-radiolabeled WT procaspase-9, FIG. 15
T1 construct: made in house; host or cells: coupled in vitro transcription/translation in rabbit reticulocyte lysate (TNT Kit, Promega)
T1 sequence (P42574 1-277): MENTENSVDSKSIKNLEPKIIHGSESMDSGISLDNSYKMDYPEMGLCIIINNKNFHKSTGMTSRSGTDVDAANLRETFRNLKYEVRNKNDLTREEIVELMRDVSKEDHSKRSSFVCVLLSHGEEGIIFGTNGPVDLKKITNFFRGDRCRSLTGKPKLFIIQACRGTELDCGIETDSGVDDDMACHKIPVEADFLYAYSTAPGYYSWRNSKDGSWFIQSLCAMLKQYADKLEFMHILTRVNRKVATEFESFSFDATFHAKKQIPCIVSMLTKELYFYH
Procedure: To achieve this, a chimeric procaspase-3 with an N-terminal caspase-9 prodomain was constructed. Caspase-9 prodomain in the chimera may allow recruitment of the chimeric procaspase-3 to the Apaf-530-caspase-9 complex. […] In FIG. 15, ^35S-labeled chimeric procaspase-3 with an N-terminal procaspase-9 prodomain (lanes 1-4) or WT procaspase-3 (lanes 5-8) were incubated with buffer or Apaf-530 in the presence or absence of a non-radiolabeled WT procaspase-9 and analyzed by SDS-PAGE followed by autoradiography.

T7-tagged Bcl-xL = molecular target: T2, T7-tagged Bcl-xL (Homo sapiens, UniProt Q07817); assay: Co-immunoprecipitation of Flag-tagged Apaf-1 variants or procaspase-9 with T7-tagged Bcl-xL in 293 cells; assay type: binding; settings: anti-Flag immunoprecipitation, anti-T7 blot, 36 hours, FIG. 16
T2 construct: expressed in transfected cells; host or cells: 293 cells
Procedure: In vivo interaction experiments between Apaf-1 variants and Bcl-xL were performed. To analyze the ability of Apaf-1 to interact with Bcl-xL, 293 cells were co-transfected with constructs encoding T7-tagged Bcl-xL and constructs encoding Flag-tagged Apaf-97 (FIG. 16, lane 1), Apaf-1 (FIG. 16, lane 2), Apaf-530 (FIG. 16, lane 3) Apaf-530ΔCARD (FIG. 16, lane 4), or procaspase-9 C287A (FIG. 16, lane 5). After 36 hours, extracts were prepared and immunoprecipitated with a monoclonal antibody to the Flag epitope. The immunoprecipitates (FIG. 16, upper panel) were analyzed by SDS-PAGE and immunoblotted with a horseradish peroxidase-conjugated T7 antibody. The corresponding cellular extracts were also analyzed by SDS-PAGE and immunoblotted with a horseradish peroxides-conjugated T7 antibody (FIG. 16, middle panel) or an anti-Flag antibody (FIG. 16, lower panel).

T2 sequence (Q07817 whole entry): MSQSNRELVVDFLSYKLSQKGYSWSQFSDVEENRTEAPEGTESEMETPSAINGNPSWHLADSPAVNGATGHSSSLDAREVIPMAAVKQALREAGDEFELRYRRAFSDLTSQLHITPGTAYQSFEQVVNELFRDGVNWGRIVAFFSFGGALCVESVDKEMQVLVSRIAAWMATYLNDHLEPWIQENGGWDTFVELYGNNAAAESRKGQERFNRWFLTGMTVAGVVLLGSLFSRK

B1: Apaf-530: truncated Apaf-1 (residues 1-530) lacking its WD-40 repeats, recombinant (protein, UniProt O14727 1-530, looked up, fragment)
chain: MDAKARNCLLQHREALEKDIKTSYIMDHMISDGFLTISEEEKVRNEPTQQQRAAMLIKMILKKDNDSYVSFYNALLHEGYKDLAALLHDGIPVVSSSSGKDSVSGITSYVRTVLCEGGVPQRPVVFVTRKKLVNAIQQKLSKLKGEPGWVTIHGMAGCGKSVLAAEAVRDHSLLEGCFPGGVHWVSVGKQDKSGLLMKLQNLCTRLDQDESFSQRLPLNIEEAKDRLRILMLRKHPRSLLILDDVWDSWVLKAFDSQCQILLTTRDKSVTDSVMGPKYVVPVESSLGKEKGLEILSLFVNMKKADLPEQAHSIIKECKGSPLVVSLIGALLRDFPNRWEYYLKQLQNKQFKRIRKSSSYDYEALDEAMSISVEMLREDIKDYYTDLSILQKDVKVPTKVLCILWDMETEEVEDILQEFVNKSLLFCDRNGKSFRYYLHDLQVDFLTEKNCSQLQDLHKKIITQFQRYHQPHTLSPDQEDCMYWYNFLAYHMASAKMHKELCALMFSLDWIKAKTELVGPAHLIHEFVEYR
processing of WT procaspase-3 (procaspase-3): no processing of procaspase-3 was observed
co-immunoprecipitation with Bcl-xL (T7-tagged Bcl-xL): capable of immunoprecipitating Bcl-xL
